According to US20250186489A1, “REPROGRAMMING OF CELLS TO TYPE 1 CONVENTIONAL DENDRITIC CELLS OR ANTIGEN-PRESENTING CELLS” (Asgard Therapeutics AB, priority 2021, published 2025):

Test system: human embryonic fibroblasts (HEF)
Test: cDC1 reprogramming efficiency of human embryonic fibroblasts, flow cytometry for CD45+HLA-DR+ cells at day 9
Assay type: cell-based
Conditions: for effect on cDC1 reprogramming efficiency when co-expressed with PU.1, IRF8 and BATF3: HEF co-transduced with TetO-PIB, M2rtTA and the individual factor
Method: HEFs, HDFs and Clec9a-tdTomato MEFs were seeded at a density of 40,000 cells per well and MSCs at a density of 50,000 cells per well on 0.1% gelatin coated 6-well plates. On the following day, cells were incubated overnight with either a ratio of 1:1 TetO-PIB and M2rtTA, SFFV-PIB-GFP or SFFV-GFP lentiviral particles in media supplemented with 8 μg/ml polybrene. Cells were transduced overnight twice in consecutive days and media replaced in between. After the second transduction, media was replaced by normal growth media (day 0). When using TetO-PIB, media was supplemented with Dox (1 μg/ml). Media was changed every 2-3 days for the duration of cultures. When stated, media was supplemented with LPS (100 ng/ml, Enzo), Poly I:C (25 μg/ml, InvivoGen) and R848 (3 μg/ml, InvivoGen) overnight. Cytokines were added at day 2 and kept for the duration of cultures; For reprogramming in xeno-free conditions, MSCs were cultured in X-Vivo 15 (Lonza) after transduction and media changed every 2-3 days for the duration of cultures.
For the analysis of surface marker expression, human and mouse cells were dissociated and incubated with antibodies diluted in PBS 5% FBS at 4° C. for 30 minutes in the presence of mouse or rat serum (1/100, GeneTex), for human and mouse cells respectively, to block unspecific binding. Cells were washed and resuspended in PBS 5% FBS and analyzed in BD FACSCanto II or BD LSRFortessa flow cytometers (BD Biosciences), unless stated otherwise. DAPI was used for dead cell exclusion. Flow cytometry data were analyzed using FlowJo software (FLOWJO, LLC, version 10.6.1). All flow cytometry analyses were performed in live single cell gates.
Coding regions of ID2, TXNIP, ZFP36, PLEK, SUB1, JUNB, CREM, KLF4, MXD1, LITAF, IRF7, FOS, NMI, TFEC, SP110, IRF5, STAT2, BATF, ZNF267, IRF1, RELB and BATF2 were individually cloned in the pFUW-TetO plasmid. […] Reprogramming efficiency was evaluated by flow cytometry in HEFs 9 days after transcription factor overexpression.
17 human hematopoietic cytokines including inflammatory mediators (Table 3) were individually added to the culture media 2 days after PIB induction in HEFs, and reprogramming efficiency was measured at day 9. Changes in reprogramming efficiency were analysed using both single cytokines and combinations of two or three cytokines.
The impact on reprogramming efficiency after a combination of cytokine treatment and SFFV-driven PIB induction was evaluated. The scPred system was used for integration with “natural” DCs. See previous Examples for experimental details.

[1] = HEF with Dox-inducible PIB, individual cytokine
[2] = HEF with SFFV-PIB in the presence of anti-inflammatory cytokine

IL-6: cytokine
fold increase in reprogramming efficiency versus condition without cytokines (HEF with Dox-inducible PIB): 2.5 fold

GM-CSF: cytokine
impact on reprogramming efficiency [1]: did not impact reprogramming efficiency

TNF-α
fold increase in reprogramming efficiency versus condition without cytokines (HEF with Dox-inducible PIB): 3 fold

IL-1β: cytokine
fold increase in reprogramming efficiency versus condition without cytokines (HEF with Dox-inducible PIB): 3 fold

TGF-β
fold reduction of reprogramming efficiency [2]: 2 fold
impact on CD40 expression in hiDCs [2]: did not impact CD40 expression

B1: IRF7: transcription factor of the interferon regulatory factor family, SEQ ID NO: 21 (protein, listed as Homo sapiens)
chain: MPVPERPAAGPDSPRPGTRRAAPRVLFGEWLLGEISSGCYEGLQWLDEARTCFRVPWKHFARKDLSEADARIFKAWAVARGRWPPSSRGGGPPPEAETAERAGWKTNFRCALRSTRRFVMLRDNSGDPADPHKVYALSRELCWREGPGTDQTEAEAPAAVPPPQGGPPGPFLAHTHAGLQAPGPLPAPAGDKGDLLLQAVQQSCLADHLLTASWGADPVPTKAPGEGQEGLPLTGACAGGPGLPAGELYGWAVETTPSPGPQPAALTTGEAAAPESPHQAEPYLSPSPSACTAVQEPSPGALDVTIMYKGRTVLQKVVGHPSCTFLYGPPDPAVRATDPQQVAFPSPAELPDQKQLRYTEELLRHVAPGLHLELRGPQLWARRMGKCKVYWEVGGPPGSASPSTPACLLPRNCDTPIFDFRVFFQELVEFRARQRRGSPRYTIYLGFGQDLSAGRPKEKSLVLVKLEPWLCRVHLEGTQREGVSSLDSSSLSLCLSSANSLYDDIECFLMELEQPA
modifications: Interferon regulatory factor 7 [Homo sapiens], peptide sequence
effect on cDC1 reprogramming efficiency when co-expressed with PU.1, IRF8 and BATF3: increased cDC1 reprogramming efficiency

B2: BATF: nuclear basic leucine zipper transcription factor, SEQ ID NO: 19 (protein, listed as Homo sapiens)
chain: MPHSSDSSDSSFSRSPPPGKQDSSDDVRRVQRREKNRIAAQKSRQRQTQKADTLHLESEDLEKQNAALRKEIKQLTEELKYFTSVLNSHEPLCSVLAASTPSPPEVVYSAHAFHQPHVSSPRFQP
modifications: basic leucine zipper transcriptional factor ATF-like [Homo sapiens], peptide sequence
effect on cDC1 reprogramming efficiency when co-expressed with PU.1, IRF8 and BATF3: increased cDC1 reprogramming efficiency

B3: Oncostatin M: cytokine (protein, UniProt P13725 26-221, looked up)
Oncostatin-M: AAIGSCSKEYRVLLGQLQKQTDLMQDTSRLLDPYIRIQGLDVPKLREHCRERPGAFPSEETLRGLGRRGFLQTLNATLGCVLHRLADLEQRLPKAQDLERSGLNIEDLEKLQMARPNILGLRNNIYCMAQLLDNSDTAEPTKAGRGASQPPTPTPASDAFQRKLEGCRFLHGYHRFMHSVGRVFSKWGESPNRSRR
fold increase in reprogramming efficiency versus condition without cytokines (HEF with Dox-inducible PIB): 4 fold

B4: FLT3L: cytokine (protein, UniProt P49771 27-235, looked up)
Fms-related tyrosine kinase 3 …: TQDCSFQHSPISSDFAVKIRELSDYLLQDYPVTVASNLQDEELCGGLWRLVLAQRWMERLKTVAGSKMQGLLERVNTEIHFVTKCAFQPPPSCLRFVQTNISRLLQETSEQLVALKPWITRQNFSRCLELQCQPDSSTLPPPWSPRPLEATAPTAPQPPLLLLLLLPVGLLLLAAAWCLHWQRTRRRTPRPGEQVPPVPSPQDLLLVEH
impact on reprogramming efficiency [1]: did not impact reprogramming efficiency

B5: IL-4: cytokine (protein, UniProt P05112 25-153, looked up)
Interleukin-4: HKCDITLQEIIKTLNSLTEQKTLCTELTVTDIFAASKNTTEKETFCRAATVLRQFYSHHEKDTRCLGATAQQFHRHKQLIRFLKRLDRNLWGLAGLNSCPVKEANQSTLENFLERLKTIMREKYSKCSS
impact on reprogramming efficiency [1]: did not impact reprogramming efficiency

B6: IL-10: anti-inflammatory cytokine (protein, UniProt P22301 19-178, looked up)
Interleukin-10: SPGQGTQSENSCTHFPGNLPNMLRDLRDAFSRVKTFFQMKDQLDNLLLKESLLEDFKGYLGCQALSEMIQFYLEEVMPQAENQDPDIKAHVNSLGENLKTLRLRLRRCHRFLPCENKSKAVEQVKNAFNKLQEKGIYKAMSEFDIFINYIEAYMTMKIRN
impact on CD40 expression in hiDCs [2]: did not impact CD40 expression
impact on reprogramming efficiency [2]: did not impact reprogramming efficiency
